Consider 5 molecules from patent publication US20250136699A1 (JIANGSU BIOJETAY BIOTECHNOLOGY, published 2025).

Like-named read-outs stand apart in the source and are kept apart here.

For experiment [1], the target named is T1, human FcRn (human FCGRT and B2M) on stably transfected MDCK cells (human, UniProt P55899 24-365; P61769 21-119). Put plainly: cell-based or functional assay.
Experiment [2] deals with T2, human B2M (human, UniProt P61769 21-119, limits assumed).
T2 construct: also called beta-2-microglobulin; not shown: His tag and Avi tag
T2 sequence (P61769 21-119 limits assumed): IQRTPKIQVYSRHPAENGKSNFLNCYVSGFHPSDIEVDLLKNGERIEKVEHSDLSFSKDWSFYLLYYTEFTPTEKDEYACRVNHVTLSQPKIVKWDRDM
Put plainly: ELISA: human B2M coated, antibody titrated, OD450.

In experiment [3] the target is T3, Rattus norvegicus FcRn-alpha (rat, UniProt P13599 23-298).
T3 construct: Alpha chain alone; also called rFcRn; rat FcRn; not shown: His tag and Avi tag
T3 sequence: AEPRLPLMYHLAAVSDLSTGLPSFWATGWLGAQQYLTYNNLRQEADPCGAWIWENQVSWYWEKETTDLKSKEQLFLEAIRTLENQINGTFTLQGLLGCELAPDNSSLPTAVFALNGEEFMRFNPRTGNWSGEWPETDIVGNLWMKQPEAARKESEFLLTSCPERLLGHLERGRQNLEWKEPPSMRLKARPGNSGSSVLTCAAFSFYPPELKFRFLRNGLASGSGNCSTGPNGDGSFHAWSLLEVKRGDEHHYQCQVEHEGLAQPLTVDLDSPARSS
The experiment can be described thus: ELISA: rFcRn coated, antibody titrated, goat anti-human IgG Fab-HRP, OD450. A general note: ELISA stands for enzyme-linked immunosorbent assay.

Experiment [4] has as its target T4, Cynomolgus monkey FcRn-alpha (cynomolgus monkey, UniProt Q8SPV9 24-297, limits assumed).
T4 construct: The printed entry looks like the full-length precursor (signal peptide, transmembrane and cytoplasmic parts); also called cynoFcRn; not shown: His tag and Avi tag
Put plainly: ELISA: cynoFcRn coated, antibody titrated, goat anti-human IgG Fab-HRP, OD450.

Experiment [5] deals with T5, human FCGRT (human, UniProt P55899 24-297, biotinylated (Avi tag) in the blocking assays).
T5 construct: Alpha chain alone, expressed in Expi293 cells with His and Avi tags; also called FCGRT of human FcRn protein; biotinylated human FCGRT; not shown: His tag and Avi tag
T5 sequence (P55899 24-297 limits assumed): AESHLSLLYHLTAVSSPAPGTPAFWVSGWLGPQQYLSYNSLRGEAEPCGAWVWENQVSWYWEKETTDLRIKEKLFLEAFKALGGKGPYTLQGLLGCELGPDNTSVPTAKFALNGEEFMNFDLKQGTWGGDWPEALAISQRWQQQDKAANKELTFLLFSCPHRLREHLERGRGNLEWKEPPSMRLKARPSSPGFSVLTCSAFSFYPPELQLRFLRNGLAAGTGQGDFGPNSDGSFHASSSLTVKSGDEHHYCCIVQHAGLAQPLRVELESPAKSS
Put plainly: ELISA: human FCGRT coated, antibody titrated, goat anti-human IgG Fab-HRP, OD450.

The target in experiment [6] is T6, Human recombinant FCGRT & B2M Heterodimer Protein (hFcRn) (human, UniProt P55899 24-297; P61769 21-119).
T6 construct: Bought protein; also called human FcRn
T6 sequence (P55899 24-297 limits assumed, chain 1 of 2): as the sequence (P55899 24-297 limits assumed) above
T6 sequence (P61769 21-119 limits assumed, chain 2 of 2): as the sequence (P61769 21-119 limits assumed) above
The experiment can be described thus: ELISA: hFcRn coated (1 ug/mL), antibody (IgG4) titrated, goat anti-human IgG Fab-HRP, OD450.
Method: (§1) hFcRn binding of purified full-length chimeric antibodies: The hFcRn antigen binding ELISA was performed on the purified full-length chimeric antibodies (reformatted as IgG4). Briefly, plates were coated overnight at 4° C. with 1 μg/mL of hFcRn (cat #CT009-H08H) in PBS. After removing the coating solution, the wells were blocked by adding blocking buffer and incubated at room temperature for 1 hour. Plates were then washed 6 times with wash buffer. Serial dilutions of purified antibodies in PBS were added to individual wells followed by incubation at room temperature for 1 hour. Plates were washed 6 times with wash buffer. […] Plates were incubated at 37° C. for 1 hour, washed 6 times with wash buffer, and developed for 5-10 minutes with 50 L/well of TMB substrate, then quenched with 2M H₂SO₄. […] The ELISA results (OD450) were analyzed, and the binding curves were generated by Graphpad PRISM.

The target in experiment [7] is T5, human FCGRT. The experiment can be described thus: blocking ELISA: human IgG coated, biotinylated human FCGRT plus titrated antibody, SA-HRP, OD450; blocked ligand: human IgG.
Method: (§2) After removing the coating solution, the wells were blocked with a blocking buffer containing 1% BSA at room temperature for 1 hour. Plates were then washed with wash buffer. […] After incubation, 100 μL of SA-HRP (1:20,000) was added to each well and incubated for 1 hour at 37° C. The wells were washed before adding 100 μL/well of TMB and incubated for 5-10 minutes at 37° C. 2M H₂SO₄ was used to stop the reaction. […] The ELISA results (OD450) were analyzed, and the binding curves were generated by PRISM.
In experiment [8] the target is human FcRn (human FCGRT and B2M) on stably transfected MDCK cells (human) (UniProt P55899). The experiment can be described thus: cell-based or functional assay.
Sequence of human FcRn (human FCGRT and B2M) on stably transfected MDCK cells (human) (P55899 24-365, chain 1 of 2): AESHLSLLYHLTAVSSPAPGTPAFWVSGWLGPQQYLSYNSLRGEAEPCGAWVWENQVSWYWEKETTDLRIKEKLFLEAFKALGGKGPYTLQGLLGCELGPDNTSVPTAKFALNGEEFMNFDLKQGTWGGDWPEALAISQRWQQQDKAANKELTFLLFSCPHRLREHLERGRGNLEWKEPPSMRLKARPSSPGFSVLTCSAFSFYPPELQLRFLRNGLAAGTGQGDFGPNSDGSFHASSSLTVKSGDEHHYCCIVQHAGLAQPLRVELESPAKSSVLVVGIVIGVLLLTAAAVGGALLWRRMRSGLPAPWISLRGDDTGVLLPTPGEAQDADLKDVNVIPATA
Sequence of human FcRn (human FCGRT and B2M) on stably transfected MDCK cells (human) (P61769 21-119, chain 2 of 2, further chain): as the sequence (P61769 21-119 limits assumed) above
Experiment [9] shares this target. Put plainly: cell-based or functional assay. The source holds these as a separate data set.
The target in experiment [10] is Human recombinant FCGRT & B2M Heterodimer Protein (hFcRn) (human) (UniProt P55899). The experiment can be described thus: ELISA, hFcRn coated at 1 ug/mL, antibody titrated, anti-human IgG Fab-HRP.
Sequence of Human recombinant FCGRT & B2M Heterodimer Protein (hFcRn) (human) (P55899 24-297 limits assumed, chain 1 of 2): as the sequence (P55899 24-297 limits assumed) above
Sequence of Human recombinant FCGRT & B2M Heterodimer Protein (hFcRn) (human) (P61769 21-119 limits assumed, chain 2 of 2, further chain): as the sequence (P61769 21-119 limits assumed) above
Experiment [11] deals with T5, human FCGRT. Put plainly: competition ELISA: human IgG coated, biotinylated human FCGRT plus antibody, SA-HRP.
In experiment [12] the target is T5, human FCGRT. The description is as above. This is another data set of the same source.
Experiment [13] has as its target T5, human FCGRT. Put plainly: ELISA: human FCGRT coated, antibody titrated, goat anti-human IgG Fab-HRP, OD450. The source holds these as a separate data set.
Experiment [14] has as its target T5, human FCGRT. Described as above. The source holds these as a separate data set.
In experiment [15] the target is T1, human FcRn (human FCGRT and B2M) on …. The experiment can be described thus: cell-based or functional assay. This is another data set of the same source.
The target of experiment [16] is T6, Human recombinant FCGRT & B2M …. The experiment can be described thus: ELISA on coated hFcRn, IgG4 antibody titrated.
Method: as §1
In experiment [17] the target is T4, Cynomolgus monkey FcRn-alpha. The experiment can be described thus: ELISA on coated cynoFcRn, IgG4 antibody titrated.
Method: as §1
Analysis of cross-reactivity to FcRn from different species: To examine whether the anti-FcRn antibodies bind to FcRn from different species, antigen binding ELISA assays were performed as described above except that cynoFcRn, mFcRn, or rFcRn was used in the assay instead of hFcRn.
Experiment [18] deals with T5, human FCGRT. The experiment can be described thus: ELISA on coated human FCGRT, IgG4 antibody titrated.
Method: (§3) Measurement of the binding specificity of anti-FcRn antibodies to FCGRT and B2M by EILSA: Briefly, human FCGRT or B2M was coated on a 96-well plate at 4° C. overnight, after removing the coating solution, a blocking buffer containing 1% BSA was added into the plates followed by incubation at room temperature for 1 hour to block unspecific binding. Plates were then washed with wash buffer, and serial dilutions of anti-FcRn antibodies were added to the wells and incubated at room temperature for 1 hour. […] The wells were washed before adding 100 μL/well of TMB and incubated for 5-10 minutes at 37° C. 2M H₂SO₄ was used to stop the reaction. […] The ELISA results (OD450) were analyzed, and the binding curves were generated by Graphpad PRISM.
Experiment [19] has as its target T2, human B2M. The experiment can be described thus: ELISA: human B2M coated, antibody titrated, OD450. This is another data set of the same source.
Method: as §3
Experiment [20] has as its target T6, Human recombinant FCGRT & B2M …. The experiment can be described thus: SPR, Biacore T200, antibody (IgG4) on CM5 chip, hFcRn in solution, pH 6.0. A general note: SPR reads the build-up and loss of mass on a sensor chip optically.
Method: The anti-FcRn antibodies were stabilized on sensor chip CM5. The affinities for hFcRn of antibodies at various concentrations were measured. […] Using the SPR technology, the association and dissociation rates were measured, and binding affinity was determined.
The target of experiment [21] is T5, human FCGRT. The experiment can be described thus: competition ELISA: human IgG coated, biotinylated human FCGRT plus antibody, SA-HRP. The source holds these as a separate data set.
Method: as §2

T1 sequence (P55899 24-365, chain 1 of 2): as the sequence (P55899 24-365, chain 1 of 2) above
T1 sequence (P61769 21-119, chain 2 of 2): as the sequence (P61769 21-119 limits assumed) above
T4 sequence (Q8SPV9 24-297 limits assumed): as the sequence (P55899 24-297 limits assumed) above, with N39D, E44Q, G99S, S189G, S190N, L217M, S269T counted along it

B1: ZLP37 (antibody, V domains shown)
VH: EVQLQQSGVELARPGASVKMSCKASGYTFSSYAMQWVKKRPGQGLEWIGYINPGTGYTNYNQKFKDKATLTADKSSSTAYMHLSSLTSEDSAVYFCARGGGLRGAMDYWGQGTSVTVSS
VL: DIVLTQSPALMSASPGEKVTMTCSANSSVNYMYWYQQKPGSSPKLWIYSTSNLASGVPARFSGSGSGTSYSLTISSMEAEDAATYYCHQRSSYPWTFGGGTKLEIK
notes: Full-length chimeric antibody with human IgG1 or IgG4 heavy constant and human kappa or lambda light constant domain
As a reminder, the EC50 (read off the curve) is the concentration that produces a half-maximal response. For the molecule B1, the “IgG Recycle IC50” value in [1] is 3.12 nM. For the same molecule, the binding result (with human B2M [2]; in experiment [3]) was “no binding (tested: about 700 nM (Log[Ab] about 2.8))” each time. The “EC50 (read off the curve)” value is approximately 6 nM in [4], approximately 20 nM with human FCGRT [5] and approximately 9 nM in experiment [6]. In addition, in the experiment with human FCGRT [7], the “IC50 (read off the curve)” value was approximately 40 nM.

B2: Rozanolixizumab (antibody, part only; not given: Constant regions, V domains shown, not shown: another chain or arm of the molecule)
VH: EVPLVESGGGLVQPGGSLRLSCAVSGFTFSNYGMVWVRQAPGKGLEWVAYIDSDGDNTYYRDSVKGRFTISRDNAKSSLYLQMNSLRAEDTAVYYCTTGIVRPFLYWGQGTLVTVSS
VL: DIQMTQSPSSLSASVGDRVTITCKSSQSLVGASGKTYLYWLFQKPGKAPKRLIYLVSTLDSGIPSRFSGSGSGTEFTLTISSLQPEDFATYYCLQGTHFPHTFGQGTKLEIK
What is called EC50 is the midpoint of the concentration-response curve. The term IC50 denotes the concentration that inhibits the measured activity by half. Regarding B2, the figures for the IgG Recycle IC50 in experiment [8] and in experiment [9] were 7.8 nM and 11.8 nM, respectively. In addition, the EC50 in experiment [10] was 1.04 nM. Further, the IC50 in the experiment with human FCGRT [11] came to 10.9 nM; with human FCGRT [12], 11.6 nM. Also, the values for the EC50 (read off the curve) (in the experiment with human FCGRT [13]; with human FCGRT [14]; in [4]) were 10 nM, 0.1 nM and 0.2 nM, respectively.

B3: ZLP1-3-2F (antibody, V domains shown)
VH: QVQLQESGPGLVKPSETLSLTCAVSGYSFTSGYSWHWIRQPPGKGLEWIGYIHDSGGTNYNPSLKSRVTISRDTSKNQFSLKLSSVTAADTAVYYCAREENYRYFDVWGQGTLVTVSS
VL: EIVLTQSPATLSLSPGERATLSCSASSSVSYMHWFQQKPGQSPRLLIYSTSNLASGIPARFSGSGSGTDFTLTISSLEPEDFAVYYCQQRSSYPPTFGQGTKVEIK
As usually defined, the Kd is the concentration at which binding is half-saturated. With B3, the “IgG Recycle IC50” value in [15] worked out at 8.36 nM. Further, the EC50 in experiment [16] came to 6.63 nM; in [17], 2.06 nM; with human FCGRT [18], 1.02 nM. Besides, the binding result with human B2M [19] was “no binding (tested: about 700 nM (Log[Ab] about 2.8))”. The Kd in experiment [20] stood at 0.609 nM. In the experiment with human FCGRT [21], the IC50 worked out at 5.77 nM.

B4: ZLP1-3-2M (antibody, V domains shown)
VH: QVQLQESGPGLVKPSETLSLTCTVTGYSFTSGYSWHWIRQPPGKGLEWIGYIHDSGGTNYNPSLKSRVTISRDTSKNQFSLKLSSVTAADTAVYYCAREENYRYFDVWGQGTLVTVSS
VL: EIVLTQSPATLSLSPGERATLSCSASSSVSYMHWFQQKPGQSPRLLIYSTSNLASGIPARFSGSGSGTDFTLTISSLEPEDFAVYYCQQRSSYPPTFGQGTKVEIK
For orientation: koff means the first-order rate constant of dissociation. Usually kon stands for a measure of how fast the partners come together. As to B4, the “IgG Recycle IC50” value in experiment [15] is 11.9 nM. Moreover, the EC50 in [16] amounted to 3.11 nM. Further, a half-maximal response in experiment [17] (EC50) required 2.82 nM. The response with human FCGRT [18] was half-maximal at 1.22 nM (EC50). Further, the binding result with human B2M [19] was “no binding (tested: about 700 nM (Log[Ab] about 2.8))”. Besides, in experiment [20], the Kd was 0.493 nM, the dissociation rate constant (koff) turned out to be 0.00184 s⁻¹ and the kon was determined as 3.73e+06 M⁻¹ s⁻¹. Moreover, in the experiment with human FCGRT [21], the IC50 came out at 5.12 nM.

B5: ZLP1-3-2 (antibody, V domains shown)
VH: QVQLQESGPGLVKPSETLSLTCAVSGYSFTSGYSWHWIRQPPGKGLEWIGYIHDSGGTNYNPSLKSRVTISRDTSKNQFSLKLSSVTAADTAVYYCAREENYRYFDVWGQGTLVTVSS
VL: EIVLTQSPATLSLSPGERATLSCSASSSVSYMHWFQQKPGQSPRLWIYSTSNLASGIPARFSGSGSGTDYTLTISSLEPEDFAVYYCQQRSSYPPTFGQGTKVEIK
notes: also called humanized version of ZLP193
As to B5, the “IgG Recycle IC50” value in experiment [15] is 4.04 nM. Also, the EC50 in [16] was determined as 2.95 nM; in experiment [17], 3.12 nM; with human FCGRT [18] it was 1.5 nM. For the same molecule, the binding result with human B2M [19] was “no binding (tested: about 700 nM (Log[Ab] about 2.8))”. The IC50 with human FCGRT [21] turned out to be 6.16 nM.
